Consider two substances from article PMC4587768.

In experiment [1] the target is BG505 SOSIP-sCD4 complex (HIV-1 (strain BG505) | human) (UniProt Q2N0S6). Put plainly: negative-stain single-particle EM.
For experiment [2] the target is unchanged. Put plainly: cryo-EM structure.
The target of experiment [3] is BG505 SOSIP.664 soluble HIV-1 Env trimer (HIV-1 (strain BG505)) (UniProt Q2N0S6). Put plainly: negative-stain single-particle EM.
Experiment [4] has the same target. Briefly: cryo-EM structure.

17b Fab (CD4-induced antibody) displayed a stoichiometry N (copies per trimer) in experiment [1] of 3. For the same substance, the stoichiometry N (Fabs per trimer) in experiment [2] turned out to be 3.
“sCD4 (CD4 domains 1 and 2) (domain or fragment)” registered a stoichiometry N (copies per trimer) in experiment [3] of 3. The stoichiometry N (sCD4 per trimer) in experiment [4] is 3.
